Measured values reported in patent US20060246084A1 (MICHIGAN STATE UNIVERSITY, published 2006).
Like-named read-outs stand apart in the source and are kept apart here.

T1: IFN-γ receptor on human cells (no IFN-γ added) (human, UniProt P15260 18-489)
T1 construct: whole, on cells; also called receptors of U937 cells and human neutrophils, monocytes, and thymocytes
T1 sequence: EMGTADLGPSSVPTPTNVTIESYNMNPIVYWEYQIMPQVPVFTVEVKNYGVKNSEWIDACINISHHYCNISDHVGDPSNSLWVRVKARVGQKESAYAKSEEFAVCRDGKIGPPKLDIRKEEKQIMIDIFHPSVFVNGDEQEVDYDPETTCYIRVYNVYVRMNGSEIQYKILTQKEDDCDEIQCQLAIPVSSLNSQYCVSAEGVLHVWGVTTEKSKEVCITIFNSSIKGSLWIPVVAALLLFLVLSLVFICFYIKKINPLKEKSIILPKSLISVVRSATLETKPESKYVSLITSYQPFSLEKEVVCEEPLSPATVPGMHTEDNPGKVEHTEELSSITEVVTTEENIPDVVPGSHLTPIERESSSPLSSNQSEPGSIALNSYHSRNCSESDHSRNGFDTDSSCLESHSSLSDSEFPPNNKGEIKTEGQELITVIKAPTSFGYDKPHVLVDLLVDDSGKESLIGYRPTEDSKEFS

B1: IFN-γ bound to its receptor (IFN-γR-IFN-γ) on human cells (other)
chain 1: QDPYVKEAENLKKYFNAGHSDVADNGTLFLGILKNWKEESDRKIMQSQIVSFYFKLFKNFKDDQSIQKSVETIKEDMNVKFFNSNKKKRDDFEKLTNYSVTDLNVQRKAIHELIQVMAELSPAAKTGKRKRSQMLFRGRRASQ
chain 2: T1 sequence
B2: recombinant human IFN-γ (ligand)
chain: B1 chain 1

How the values were obtained:
[1] = target: T2, LcrV68-326, N-terminally truncated LcrV (Yersinia pestis, UniProt P0C7U7 68-326)
[2] = target: T2, LcrV68-326, N-terminally truncated LcrV; assay: 125I-LcrV68-326 plus unlabelled IFN-γ on U937 cells
[3] = target: T2, LcrV68-326, N-terminally truncated LcrV; assay: 125I-LcrV68-326 plus unlabelled IFN-γ on human monocytes
[4] = target: T2, LcrV68-326, N-terminally truncated LcrV; assay: 125I-LcrV68-326 plus unlabelled IFN-γ on human thymocytes
[5] = target: T2, LcrV68-326, N-terminally truncated LcrV; assay: 125I-LcrV68-326 plus unlabelled IFN-γ on human neutrophils
[6] = target: T1, IFN-γ receptor on human cells (no IFN-γ …); assay: 125I radioligand binding to U937 cells
[7] = target: T1, IFN-γ receptor on human cells (no IFN-γ …); assay: 125I radioligand binding to human monocytes
[8] = target: T1, IFN-γ receptor on human cells (no IFN-γ …); assay: 125I radioligand binding to human thymocytes
[9] = target: T1, IFN-γ receptor on human cells (no IFN-γ …); assay: 125I radioligand binding to human neutrophils

Binder	Kd [1]	Kd [2]	Kd [3]	Kd [4]	Kd [5]	Kd [6]	Kd [7]	Kd [8]	Kd [9]
B1	0.016 nM	0.8 nM	7.2 nM	2.4 nM	0.92 nM				
B2						0.68 nM	0.84 nM	0.26 nM	0.93 nM
